Test results reported in the supplement of paper PMC12764529.
± gives the half width of the 95% confidence interval.

How the values were obtained:
[1] = folding stability dG unfold from trypsin proteolysis; higher = more stable
Method in brief: (§1)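 Designed mini-proteins with no cysteine and under 80 residues were kept only if AlphaFold2 dimer inter-PAE was above 15. In a PA-tagged cDNA display construct, they were digested with trypsin and chymotrypsin and then sequenced. K50 was inferred by Bayesian fitting of counts, and unfolding free energy was derived per protease or combined against a sequence-predicted unfolded-state K50 and a shared folded-state K50.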

[2] = folding stability dG unfold from chymotrypsin proteolysis; higher = more stable
Method in brief: as §1

[3] = folding stability dG unfold (combined trypsin and chymotrypsin); higher = more stable
Method in brief: as §1

Sequence | folding stability dG unfold [1] [kcal/mol] | folding stability dG unfold [2] [kcal/mol] | folding stability dG unfold [3] [kcal/mol]
SAGGSAGGSAGGNPPDWKPVGEEEFPIPNPNGMQIKISVWTIRAPDDGKSASFIDIEMYPSAGGSAGGSAGG [r7_546_TrROS] | 1.19 ± 0.07 | 1.87 ± 0.072 | 1.58 ± 0.32
SAMIIVAMAPDRMLIIGPDGRVLVVDDPEKAIELIKELFPVPIIVIPVPEDSPVFRELLERLERERTGESAG [r14_235_TrMRF] | 2.71 ± 0.08 | 3.18 ± 0.11 | 2.91 ± 0.14
SAGEKFEPVEEKELTLKITLKDKDGNEKEVEIKVKVEVVKNPDGTLTVRAEITFEDGTKIELELEIKLPSAG [r5_57_TrROS_Hall] | 3.27 ± 0.16 | 3.19 ± 0.23 | 3.11 ± 0.33
SAGGSAGGSKITSIQPHDGFWRIEIKPDGKPQERWINMDELPPNIKIPPGYKVKIEPFSPGDMSAGGSAGGS [r12_1005_TrROS] | -0.0148 ± 0.14 | -0.769 ± 0.92 | -0.26 ± 0.26
SAGGSAGGSGDGDYKNDPNGEQERKPKPPPVPPILVFKVELDIDANGNLDLSPDLGWFPPDAISAGGSAGGS [r12_1027_TrROS] | 1.55 ± 0.13 | 1.03 ± 0.093 | 1.42 ± 0.14
SAMSVKTYSSTSVDPKTGKTYTTTTTVTPKPEPPWLVTTTTYLVDPATGTTTLLSTTTTTLDPNDPTLLSAG [r14_939_JUSTAS] | 2.11 ± 0.071 | 2.67 ± 0.11 | 2.45 ± 0.084
SAGGSAGGSAGGWDEIKDILREAGWPVKNVEVQWIPNPENGKPMNSITVSYPDGKKWTIMSAGGSAGGSAGG [r7_337_TrROS] | -0.195 ± 0.13 | 0.0542 ± 0.19 | 0.0642 ± 0.098
SAGGSATQVVLKITIKINKGEKEETREIVLPATDPEEAIAKVKKELKEKGIDAEIEELEILPVDLLSAGGSA [r15_165_JUSTAS] | 1.31 ± 0.089 | 0.919 ± 0.059 | 1.27 ± 0.15
SAGGSAMKKTTATFYVRPDSLTVEIELGEKTKKLTFDPSVSIEEVKASLPDYVDEVKVKPASPSLSSAGGSA [r15_1058_JUSTAS] | -0.43 ± 0.24 | 0.529 ± 0.27 | 0.242 ± 0.14
SAGGSAGGSAGMNITITFPDGTVVEIPDVPPEYADVTPEKLKEEVLKKYPNVNVKVSPNGSAGGSAGGSAGG [r17_42_JUSTAS] | 0.302 ± 0.055 | 0.127 ± 0.038 | 0.101 ± 0.22
SAGGMKIEIELEDGYLRVKIYDKDGKLIEEIEIKIEKVEPPPEVEVELSPEELAKKLGVEIEIKEKESAGGS [r16_778_TrROS_Hall] | 1.62 ± 0.18 | 2.38 ± 0.2 | 2.32 ± 0.44
SAGGSAGGSAGMVLPRPDGSLVVITEHPDGTVTVTFAPPDKPITIEVPKEEPVDIRVFPLSAGGSAGGSAGG [r11_164_TrMRF] | 1.39 ± 0.043 | 0.324 ± 0.087 | 1.02 ± 0.046
SMSMEEAMEWAEENPDRPVIFINPEDWYIMIYNPKKGKMEMRPITSPEEALEELDDENIDRIYIVPADEISA [r9_775_TrROS] | 1.21 ± 0.064 | 2.31 ± 0.061 | 1.96 ± 0.088
SAGPPGQPIKPIDITVKPEENTITIKFGDKNLEIPIPPGVEADIWVYPDHIVITIEFPDGKIVTIVLPFSAG [r5_21_TrROS] | 3.73 ± 0.31 | 4.46 ± 0.19 | 4.33 ± 0.26
SMVFTLPGGIEIKVEPEEDSYRFVIELPSGERLEVPVPPENLEEFIRELIRKALEIANPNITEEEIEKLASA [r9_634_TrMRF] | 3.22 ± 0.26 | 4.02 ± 0.09 | 3.59 ± 0.29
SAGGMEVEITIVVPPGASLEEIEELARKLAEELGLSVENIKVTVIVVEPEEEEEEEEEKKLKEEEEKSAGGS [r16_240_TrROS_Hall] | 1.93 ± 0.17 | 3.04 ± 0.56 | 2.57 ± 0.55

Sequence | folding stability dG unfold [1] [kcal/mol] | folding stability dG unfold [2] [kcal/mol] | folding stability dG unfold [3] [kcal/mol]
SKKTVYRIVIELENGEKLEIEVPLGSEVKIEKKEDGTITITVNGKKIEIKLKPGEKAKIVKIEKLPEEEESA [r9_773_TrROS_Hall] | 2.1 ± 0.13 | 2.48 ± 0.064 | 2.52 ± 0.23
SAGGSAGGGAAPRTRVIEVLFPVPPDVTVEEIAERLRALYPDAVLVAEAERLPDGYVRVVVTLRSAGGSAGG [r6_566_TrMRF] | 2.49 ± 0.031 | 3.54 ± 0.078 | 3.19 ± 0.083
SAGGSAGGSAGGSNIEVHYFPDGAIVMTIREPNGWYIKIVARIPPDGNIKITEIELFPMSAGGSAGGSAGGS [r4_246_TrROS] | 3.24 ± 0.11 | 3.78 ± 0.11 | 3.49 ± 0.2
SAGGSAGGEDKYLVVEFTVPEGKAEEFIAEVKKKIPPNWKIERVEIVEKTEDGLYRVRVVLKPGSAGGSAGG [r6_340_TrMRF] | 4.5 ± 0.14 | 4.88 ± 0.049 | 4.87 ± 0.086
SAGGMKIKLKDGSEITIGSEPGRLVIVLRPPGPRSRKVIPFPVPSKEHGFVAAVNELLSLEDIEEIEPSAGG [r13_579_TrMRF] | 0.379 ± 0.11 | 1.34 ± 0.077 | 1.15 ± 0.2
SAGGSAGGMIEVESFPEIGYILVKAKSEKPEEIAKEVLEKFNVKEAVVFEDPEKPYVYILAKIDSAGGSAGG [r6_661_TrMRF] | 0.97 ± 0.088 | 1.26 ± 0.21 | 1.13 ± 0.21
SAGGSAGGSAGKPKKPKLVKVKITLPNGEKKEIITEDVEEVIKEINEEFGAIKIEVEEIKSAGGSAGGSAGG [r17_508_TrMRF] | 2.68 ± 0.12 | 2.8 ± 0.14 | 2.76 ± 0.17
SAGGSAGGKKVYEIKGLTPEQIRALVKENKGKVTIYYKDGKKEEKTIKEGDEIAPGETVYIEVESAGGSAGG [r6_303_TrROS_Hall] | 0.858 ± 0.11 | 1.74 ± 0.13 | 1.56 ± 0.21
SAGGSAGGSMTVERNVTSEEEAEEWREEIEKELGVKVEEVIREETEEGDLRVKFVIEIPEDLKSAGGSAGGS [r12_577_JUSTAS] | 0.37 ± 0.069 | -0.367 ± 0.2 | 0.0537 ± 0.18
SQVKIHIPFEVEYSPENGNYFFMIRVRYPGKERPIMFPYKDPEQMREWARTIAKELAKENPDNVEIEIWWSA [r9_1148_TrROS] | 2.42 ± 0.038 | 2.83 ± 0.095 | 2.73 ± 0.15
MKVEIVEVEYDEETKRVRVKLKVDGKLVEIEFDLESGKVTVRIYEDGEEIEIEAESVEDALEKAKELVKEKS [r1_177_TrROS_Hall] | 2.02 ± 0.2 | 1.69 ± 0.12 | 1.93 ± 0.28
SDYYIINIKIEVYYDGKPVREIPIFILVPPEQALMIAETIAEMLPGYKVKIKINVYRIPEDDPELREAFGSA [r9_782_TrROS] | 2.31 ± 0.077 | 3.26 ± 0.044 | 2.93 ± 0.18
SAWNFKIEEVEVDPNDGRIWFTVKIPPNNPELAEEIAEELQDYGIKVKLINPDLPPGQTIIVQIEVKDPSAG [r14_354_TrROS] | 1.3 ± 0.096 | 2.09 ± 0.18 | 1.83 ± 0.18
SAGGSAGGSELPDGPALVVLPINSKPVVALAKVNSTGKIEVYIPNPGKKFTFDLDQAEVYPVLSAGGSAGGS [r12_782_TrMRF] | -0.1 ± 0.082 | 0.533 ± 0.1 | 0.35 ± 0.061
SAGGMKIIEIEDRGPGKFAGPETVLEALRKALPGIPIEVLDYDPEKHVIRIRVPEEAVPRIVEAFKSSAGGS [r8_235_TrMRF] | 3.68 ± 0.098 | 3.96 ± 0.056 | 3.88 ± 0.057
